Source: the supplement of paper PMC10126150
± gives the standard deviation of the averaged measurements.

Test system: ATP
Experiment: switch fluorescence ratio, 500 uM ATP over buffer (Cy3 cluster intensity, sum of 5 cycles each) (fold (ratio)); higher = stronger signal-on switching upon ATP binding; sequences stand for … in TCGTCGGCAGCGTCAGATGTGTATAAGAGACAGTTTTTTTTTTTTTTTTTTTTTTTTT…TC
Conditions: aptamer strand: ATP DNA aptamer (quencher-CACCTGGGGGAGTATTGCGGAGGAAGG + anchor), 100 nM annealed; ATP concentration: 500 uM
Outline: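 Per cluster, summed Cy3 intensity from the target cycles was divided by that from the buffer cycles to give the fluorescence ratio, then averaged per switch-domain sequence. Clusters outside 100-1000 RFU were excluded. The Cy3-labelled switching-strand clusters, on a modified Illumina MiSeq flow-cell, were annealed to 100 nM quencher-labelled ATP aptamer and imaged in selection buffer, then after 15 min with 500 uM ATP at 22 °C, for five cycles with NaOH stripping and re-annealing between them.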
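Further: ATP exposure 15 min at 22 °C before imaging.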

Row | Sequence | switch fluorescence ratio
1 | TGTTTTTTGG | 0.991 ± 0.033
2 | TAAGGGGTTT | 1.03 ± 0.058
3 | TTTGATATTA | 0.994 ± 0.026
4 | CTCAATAGCA | 1.036 ± 0.0037
5 | TTTAAGTCGT | 0.974 ± 0.025
6 | TGACTTGGG | 0.935 ± 0.02
7 | GCCAGCATGG | 1.003 ± 0.0046
8 | AAGGCGGCAT | 1 ± 0.044
9 | AAGGGGGAAT | 1.05 ± 0.031
10 | AGCCGAATTC | 1.03 ± 0.06
11 | ATATATGGGG | 0.987 ± 0.045
12 | TACTGGTATG | 1.03 ± 0.037
13 | GCACTTGGGG | 0.998 ± 0.057
14 | TGGACAACTT | 0.995 ± 0.025
15 | TGTGACGAAC | 1.23 ± 0.045
16 | AATAAGGAGA | 1.01 ± 0.019
17 | GGGCTTTGAG | 0.979 ± 0.038
18 | TTTATCTTTT | 1 ± 0.028
19 | TAGCGAGGGG | 0.98529 ± 0.00026
20 | GGTAGGGCGA | 1.01 ± 0.026
21 | CGGGGGAGTA | 0.996 ± 0.018
22 | GGGTGGTAGA | 1.01 ± 0.04
23 | TGAAGATATT | 0.993 ± 0.023
24 | GGGAAAAATC | 2.06 ± 1.5
25 | AGAGAGAGGT | 0.992 ± 0.045

Row | Sequence | switch fluorescence ratio
26 | CAAAAAGAGC | 0.976 ± 0.015
27 | GACGCTGTGC | 3.6 ± 0.41
28 | TTGGCAGGCC | 1.017 ± 0.0074
29 | TATGCTGCTG | 1.01 ± 0.036
30 | ACAATGTCT | 0.996 ± 0.014
31 | AATGTGGGTA | 0.982 ± 0.015
32 | TTGTCAGCGT | 0.997 ± 0.012
33 | ATAGAGGCAC | 1.09 ± 0.099
34 | GCAATTGGGT | 1.08 ± 0.012
35 | CAATGGGTCT | 0.9523 ± 0.0028
36 | TGGGTATTTT | 1.01 ± 0.026
37 | GCCGTCAGTT | 0.9899 ± 0.0048
38 | ATGAGGGGAG | 0.997 ± 0.013
39 | TAGGAAATTA | 1 ± 0.015
40 | CAAAAGTGGT | 1.01 ± 0.018
41 | CCATCATTCA | 1 ± 0.028
42 | AGAGGTCCGA | 0.991 ± 0.037
43 | AAACGGGGCT | 1.02 ± 0.012
44 | CGGGTGGCGA | 1.02 ± 0.081
45 | TTTCACAATC | 1.07 ± 0.076
46 | TCTAATTACA | 1.04 ± 0.073
47 | GGGCAAGCGA | 1.08 ± 0.043
48 | CAGCAACGTA | 1.05 ± 0.025
49 | GCATCAAAGG | 0.995 ± 0.013
50 | CGTGATTTA | 0.961 ± 0.017

Row | Sequence | switch fluorescence ratio
51 | ACGGTAGAAC | 1.04 ± 0.021
52 | AGCACTTACA | 1.35 ± 0.085
53 | GCGAGGTGGT | 1.001 ± 0.0076
54 | GGCGACTAAA | 1.07 ± 0.057
55 | ATAGGAACTT | 1.02 ± 0.013
56 | GCCTGCTAGC | 1.008 ± 0.007
57 | GGCTACGGCG | 0.993 ± 0.016
58 | GGATGAAGGG | 0.981 ± 0.022
59 | TCCATCAGTA | 0.985 ± 0.024
60 | CTGTTGCCTG | 0.974 ± 0.041
61 | GATCGTACTT | 1.08 ± 0.015
62 | ACGATTATGC | 1.04 ± 0.11
63 | AGTTGTTGG | 0.982 ± 0.011
64 | TGGTTTTGC | 1.01 ± 0.023
65 | GATAGGGTAC | 1.0351 ± 0.0001
66 | GATCAGGGGT | 1.06 ± 0.044
67 | TTATTGTTGA | 1.02 ± 0.011
68 | GCATCCGGCG | 1.04 ± 0.081
69 | AATTACTTTA | 1.03 ± 0.029
70 | CTCATCTAAT | 0.9821 ± 0.0081
71 | TTCAGTTCGA | 0.9971 ± 0.0057
72 | TATTCAGGGT | 1.01 ± 0.028
73 | TCGAAGGTTT | 1.01 ± 0.029
74 | TTTTGGCAGG | 1.03 ± 0.037
75 | TTCGATAGCA | 1.06 ± 0.058

Row | Sequence | switch fluorescence ratio
76 | CTATGTAAAT | 1.01 ± 0.031
77 | CGTGTCGTGC | 0.971 ± 0.062
78 | GCGAGAGTGT | 0.99552 ± 0.00015
79 | TGGTGAAAGA | 1.01 ± 0.029
80 | GTTGCTGGTG | 1.025 ± 0.0071
81 | TCATGTGCAT | 1.129 ± 0.0048
82 | GTAGGGGGTG | 1.02 ± 0.065
83 | TGGGGGGGCG | 0.998 ± 0.04
84 | GAGATTAGGT | 0.977 ± 0.015
85 | TTCGAATTGT | 0.976 ± 0.037
86 | GCGACGTGAC | 3.17 ± 0.24
87 | CAGCTGTGGT | 0.985 ± 0.036
88 | TTGGGGACGG | 1 ± 0.038
89 | TTCAAGTGAA | 0.979 ± 0.012
90 | GCGCAACAGG | 1.04 ± 0.015
91 | TCCTTTTTTG | 1 ± 0.016
92 | ATGACCGGGG | 1.02 ± 0.023
93 | TAGTGGGAGA | 1.03 ± 0.029
94 | TGTGTCTATA | 0.97698 ± 0.00069
95 | GGTATGGTGG | 1.01 ± 0.036
96 | TCTGTGGGTT | 0.973 ± 0.051
97 | GTGCGGGCGC | 0.944 ± 0.04
98 | TAAGATGTAG | 0.9957 ± 0.0011
99 | CAGGGAATGT | 0.9984 ± 0.0077
100 | TTTTTGGTTG | 1.01 ± 0.012

Row | Sequence | switch fluorescence ratio
101 | TAAGTTGGTG | 0.976 ± 0.018
102 | CGGTTAACCA | 1.02 ± 0.021
103 | ACGAGACGC | 1.16 ± 0.031
104 | TGGGGGTGCT | 1 ± 0.013
105 | CAAATAGTCG | 1.01 ± 0.027
106 | GGGATGGTAG | 1.01 ± 0.027
107 | TGACAGGGGA | 1.02 ± 0.033
108 | CTTACAGCTA | 1.097 ± 0.0016
109 | GACTTTTATA | 0.996 ± 0.026
110 | GGGCGGGGAA | 1.03 ± 0.035
111 | AGTTTTCATT | 1 ± 0.049
112 | CATTGTTGAC | 0.961 ± 0.02
113 | CGAACTGTGG | 0.9673 ± 0.009
114 | TGCTACAGGT | 1.04 ± 0.022
115 | CGGGGGACTG | 1.04 ± 0.039
116 | GGGGATGTAA | 1.01 ± 0.013
117 | CCCAGTTTTT | 1.006 ± 0.0054
118 | GCTCTCACTT | 1.02 ± 0.043
119 | ATTTTAGAAC | 1.013 ± 0.0031
120 | GGAGGTGTGT | 1.02 ± 0.021
121 | GTTGTTAAGG | 0.996 ± 0.014
122 | TCTGGTAATT | 1 ± 0.02
123 | TAAGGACGGG | 1.02 ± 0.03
124 | CAGATGGGGA | 1.012 ± 0.0036
125 | TATTAAAAAT | 1.03 ± 0.047

Row | Sequence | switch fluorescence ratio
126 | CGGCGTGTTT | 1.052 ± 0.0087
127 | GGAGGAGGGC | 0.909 ± 0.043
128 | CGGAGTTTTG | 1.01 ± 0.027
129 | GGGTGAGTTT | 1.038 ± 0.0051
130 | AGACAATTAG | 1.01 ± 0.093
131 | AACTGTGTTT | 0.983 ± 0.04
132 | TTAACGCGTT | 1.0063 ± 0.00089
133 | GAGGGGTTCT | 0.984 ± 0.043
134 | ATAAAAGGAT | 0.973 ± 0.014
135 | TATGATCTTT | 1.029 ± 0.0052
136 | GTTATAGCTT | 1.018 ± 0.0029
137 | TGTTGCGGAT | 1.24 ± 0.29
138 | GAATGCCGGG | 1.03 ± 0.054
139 | GATAGTTCGC | 1.01 ± 0.015
140 | ATGGGCTCCG | 0.974 ± 0.015
141 | GATCGTTTTA | 1 ± 0.022
142 | GGAGGCCAGC | 1.05 ± 0.075
143 | TCAGGGGTTA | 1.03 ± 0.031
144 | ACCCTGGAAC | 1.045 ± 0.0039
145 | TTTAGATCGG | 1.01 ± 0.046
146 | ACTCGGGCTA | 1.59 ± 0.61
147 | AGTTTTGGAG | 1 ± 0.015
148 | AGTGATCAGG | 1 ± 0.019
149 | TGACACAGGA | 1.04 ± 0.024
150 | AGGCGCTTAT | 1.33 ± 0.55

Row | Sequence | switch fluorescence ratio
151 | ACACAGCGGC | 1.16 ± 0.046
152 | TGGGATTAGT | 0.9868 ± 0.00058
153 | GCAGGAAGGG | 0.977 ± 0.019
154 | TAAGGGTTTT | 1 ± 0.036
155 | TCCAGGGGAT | 1.07 ± 0.12
156 | AAGATGTTAG | 0.9926 ± 0.0062
157 | TAACAAATAG | 0.9741 ± 0.0062
158 | AGCCTTTATC | 1.04 ± 0.011
159 | ATAAAAATTT | 1 ± 0.024
160 | TTTTTGAGCG | 1.04 ± 0.0024
161 | GTTTTTTTAA | 1 ± 0.034
162 | TGCGGTAAAA | 1.03 ± 0.063
163 | TTATTTTCAC | 1.04 ± 0.036
164 | GATTGCGAGA | 1.01 ± 0.036
165 | AGAAAGAAAA | 0.993 ± 0.09
166 | ATCTTCTAGT | 0.953 ± 0.041
167 | AAAATTGGAA | 1 ± 0.03
168 | TGGGGTGCAT | 0.993 ± 0.051
169 | CTCGTCAATT | 1.52 ± 0.24
170 | TCCTGAGTAA | 1.55 ± 0.25
171 | CACTTAAGGC | 1.05 ± 0.072
172 | TAGTTTTAAA | 1.02 ± 0.044
173 | TAAAGGGTAA | 0.9888 ± 0.0044
174 | CTCTACAGGG | 1.04 ± 0.042
175 | ACGAGGGGGC | 1.24 ± 0.34

Row | Sequence | switch fluorescence ratio
176 | GAGACTGGTT | 1.03 ± 0.034
177 | GCAGCATCGG | 1.12 ± 0.021
178 | TGTGGTTCGA | 0.972 ± 0.011
179 | ATCAGTGGTC | 0.936 ± 0.021
180 | ATAATATAGG | 0.99 ± 0.041
181 | CGTTGACCTT | 1.07 ± 0.029
182 | CGGTAAGTGG | 0.988 ± 0.024
183 | TGGGGGAGTG | 0.985 ± 0.024
184 | TTGGGATGGT | 1.02 ± 0.029
185 | GTTCCCAGGA | 1.09 ± 0.02
186 | CTACGAGCTG | 1.06 ± 0.021
187 | GGGATAATGA | 0.977 ± 0.035
188 | AGTCCGGGAG | 1.02 ± 0.026
189 | TAGAAACCTT | 1.81 ± 1.1
190 | TTTGTGAGGG | 0.982 ± 0.028
191 | GAGCTACTGA | 1.011 ± 0.0085
192 | AATGGGGTAC | 1.009 ± 0.0087
193 | ATATGTTTG | 0.973 ± 0.047
194 | TTAGGATTTT | 1.01 ± 0.011
195 | AGTGTAAGTA | 0.996 ± 0.03
196 | AATCGGGAA | 0.9868 ± 0.0041
197 | ATCAAAGCGC | 1.03 ± 0.023
198 | TGGGTTTCTA | 0.964 ± 0.021
199 | GAAATTTGG | 1.01 ± 0.061
200 | ATTCTCTGGT | 1.01 ± 0.076
